The values below come from the DeepSol protein solubility set.

A short description of the data set: soluble on expression in E. coli; label from the status in PepcDB or PDB records.
Turning to “MAERAALEELVKLQGERVRGLKQQKASAELIEEEVAKLLKLKAQLGPDESKQKFVLKTPKGTRDYSPRQMAVREKVFDVIIRCFKRHGAEVIDTPVFELKETLMGKYGEDSKLIYDLKDQGGELLSLRYDLTVPFARYLAMNKLTNIKRYHIAKVYRRDNPAMTRGRYREFYQCDFDIAGNFDPMIPDAECLKIMCEILSSLQIGDFLVKVNDRRILDGMFAICGVSDSKFRTICSSVDKLDKVSWEEVKNEMVGEKGLAPEVADRIGDYVQQHGGVSLVEQLLQDPKLSQNKQALEGLGDLKLLFEYLTLFGIDDKISFDLSLARGLDYYTGVIYEAVLLQTPAQAGEEPLGVGSVAAGGRYDGLVGMFDPKGRKVPCVGLSIGVERIFSIVEQRLEALEEKIRTTETQVLVASAQKKLLEERLKLVSELWDAGIKAELLYKKNPKLLNQLQYCEEAGIPLVAIIGEQELKDGVIKLRSVTSREEVDVRREDLVEEIKRRTGQPLCIC”, the “soluble on expression in E. coli” value is listed as “soluble”.

Consider “MSNQYGDKNLKIFSLNSNPELAKEIADIVGVQLGKCSVTRFSDGEVQINIEESIRGCDCYIIQSTSDPVNEHIMELLIMVDALKRASAKTINIVIPYYGYARQDRKARSREPITAKLFANLLETAGATRVIALDLHAPQIQGFFDIPIDHLMGVPILGEYFEGKNLEDIVIVSPDHGGVTRARKLADRLKAPIAIIDKRRPRPNVAEVMNIVGNIEGKTAILIDDIIDTAGTITLAANALVENGAKEVYACCTHPVLSGPAVERINNSTIKELVVTNSIKLPEEKKIERFKQLSVGPLLAEAIIRVHEQQSVSYLFS”, for which the “soluble on expression in E. coli” value is “soluble”.

Regarding “ADQVDPQLKFAMQRDLGIFPTQLPQYLQTEKLARTQAAAIEREFGAQFAGSWIERNEDGSFKLVAATSGARKSSTLGGVEVRNVRYSLKQLQSAMEQLDAGANARVKGVSKPLDGVQSWYVDPRSNAVVVKVDDGATDAGVDFVALSGADSAQVRIESSPGKLQTT”, the “soluble on expression in E. coli” value is recorded as “soluble”.

As to “MKKFFQEIKADIKFKSAGPGQKLTDSAGEKTTKGKSPQLALRQPRQGPTDEAQMAAAAALARLEQKQPRARGPTSQDSIRNQVRKELQAEATSSNNPGAPGTNSVPEPKEEISPHLAVPGVFFICPLTGVTLRRDQRDAHIKQAILSHFSTDPVAASIMKIHTFNRDRDRVKLGVDTIAKYLDNIHLHPEEEKYQKIKLQNKVFQERINCLEGSHEFFEAIGFKKVTLPVPDQEGQEEFYVLGEDARAQPQNLARHKQQLLDAEPVRATLDRQLRVFRPSALASHFELPSDFFSLTAEEVKREQRLRTEAVERLSSLRTKAMREKEEQRELRKYTYALVRVRLPDGCLLQGTFYAREKLSALFRFVREALQNDWLPFELRASGGQKLEENEALALNECGLVPSALLTFSWDASVLEDIRAAGAEPAKSVLRPELLAAIEQLS”, the “soluble on expression in E. coli” value is reported as “soluble”.

In the case of “MSLALSTEQKTKMWAMLNQTRGQIGLTAYKDYIFGILFYKYLSEKATHWLNGVLRGENWENVYSQDSVKALNYMKKNLGYAIQPNEFFVDWKKAIDTDRFNIGMMTDTFTHFNQQIAFEAKNDFEGIFDGMRFDSADLGANAQARASVMISMIELLSSPEFDLSGSNDTVSDIYEYLVAQFATVLASDMGQYYTPKEISNVMARILTFGREDMEKFSIFDPTVGSGSLLLTTASYMKNSGRRGVIKYYGQEKDATPYRLSRMNLMMHGIEYNDININHADTLESDWPDGVVDGKDTPRMFDAVMANPPYSAHWNNKDREDDPRWREYGVSPKTKADYAFLLHCLYHLEDNGRMAIILPHGVLFRGASEGRIRKALIDKHQIEAIIGFPDKLFLNTSIPVCVVILRKNRIESDILFVDASKGFEKIKKQNNLRSEDVEKIVDTVINRKEIEKYSHVATLDEIKENDYNLNIPRYVDTFEEEEAIDLVALGNEMVTLNADIKKAETDFLGLLDELAVTPDTKEIIEATKAVFREGHHHHHH”, the “soluble on expression in E. coli” value is “soluble”.

As to “MALRDSFNKIISYFDTDEVSEVEEPAVASVKRQQDAAQPASQQQKAQSHQYHQSASRPSQQQVQSGQNRRSGEENIHSLPTRRQSHNQQPAQEKTTIALKLPRKYEDAEEIVDLLIRNECVLIDFQYMLEAQARRCLDFIDGASKVLAGNLQKVGASMYLLTPINVIVDAEEMTLAANGQDVSFNYDMKRRLEHHHHHH”, the “soluble on expression in E. coli” value is on record as “not soluble”.

Regarding “MAHHHHHHMSPAADTTHSTTKPCAPNRSSIPETCSRAPNGTRASAADEVTLLTAPQFAKSTKDTRSTARQQEEQLSDVLVLIRHGERQDHVDRAWKGNALLPLYDPPLSNAGRMQSFETALRYFALRQERKVEKRIRGTFTLFLVSPFHRCIETAAVMNVIAFEGRLPMYVEPFLSDWQQAKVFRTAPVLGGSYTTSGRPSVPGAKGDRLLFRPQVEALRVTLIPFLKTRAAEETELLAEYKIGAEVASAWTTLAEEWLNTHTALPVWTCAAATNVIEAKVASRSDGASDVRATSRKAAKGSQPSPRDASNEGYRGCGVAHPEGKSDLLRRCEQVMSTHFLRCAAVASDTMVPLAIQTAVAAERTTRLPKYFQIWAERPEENRESAGPPALLPPMHIMAITHADVVSTLLEVCCPKYHDKGAGYSVPYCSVTTLQRHNNYYRIPTAEERRRREASASTLAPAQNRGKCYAKKKGNTPSSKNQLMTPIRTRPLSPLSVEWNVEAVGSTDLLRTRIVIQYTK”, the “soluble on expression in E. coli” value is “soluble”.

Consider “MGSDKIHHHHHHMQRIAMISEHASPLASVGSVDSGGQNVYVAHLARQLGKSGYLVDVFTRRDKALLPDVVAFAPNVRVVHVPAGPAVFVPKEQLLSFMPAFGDSMVDFMRRDAIGYDVLHANFFMSGVAAMRAREVLDIPLVMTFHALGKVRRLHQGSADGFPDNRFEIEDELVRHADRVVAECPQDLDDLATLYGGDPERIDIVPCGFDEEEFAPLDRAEARRALDWDADVFTVLQLGRLVPRKGIDNVIRAIGHLRRDFRIPARLYVVGGNAEQPSVEATPEIGRLQGVADEAGVSDCVTFVGRRRRSQLCHFYSASDVFVTTPWYEPFGITPVEAMACGVPVVGADVGGIRSTVVDGETGYLVPPHAPEALADRLARLAGDRALARRMGAAGLQRAHANYTWMSVARTMEQVYARVMRAERPARRVAA”, for which the “soluble on expression in E. coli” value was “not soluble”.

Take “MSLSQKNNNELPKQAAENTLNLNPVIGIRGKDLLTSARMVLLQAVRQPLHSARHVAHFSLELKNVLLGQSELRPGDDDRRFSDPAWSQNPLYKRYMQTYLAWRKELHSWISHSDLSPQDISRGQFVINLLTEAMSPTNSLSNPAAVKRFFETGGKSLLDGLGHLAKDLVNNGGMPSQVDMDAFEVGKNLATTEGAVVFRNDVLELIQYRPITESVHERPLLVVPPQINKFYVFDLSPDKSLARFCLRNGVQTFIVSWRNPTKSQREWGLTTYIEALKEAIEVVLSITGSKDLNLLGACSGGITTATLVGHYVASGEKKVNAFTQLVSVLDFELNTQVALFADEKTLEAAKRRSYQSGVLEGKDMAKVFAWMRPNDLIWNYWVNNYLLGNQPPAFDILYWNNDTTRLPAALHGEFVELFKSNPLNRPGALEVSGTPIDLKQVTCDFYCVAGLNDHITPWESCYKSARLLGGKCEFILSNSGHIQSILNPPGNPKARFMTNPELPAEPKAWLEQAGKHADSWWLHWQQWLAERSGKTRKAPASLGNKTYPAGEAAPGTYVHEREGHHHHHH”: the “soluble on expression in E. coli” value was “soluble”.

For “MGSSHHHHHHSSGLVPRGSHMGGGRSTETSSSSGGDGGATKKKVVVGTDAAFAPFEYMQKGKIVGFDVDLLDAVMKAAGLDYELKNIGWDPLFASLQSKEVDMGISGITITDERKQSYDFSDPYFEATQVILVKQGSPVKNALDLKGKTIGVQNATTGQEAAEKLFGKGPHIKKFETTVVAIMELLNGGVDAVITDNAVANEYVKNNPNKKLQVIEDPKNFASEYYGMIFPKNSELKAKVDEALKNVINSGKYTEIYKKWFGKEPKLDRLKQ”, the “soluble on expression in E. coli” value was “soluble”.

As to “AFTGKYEIESEKNYDEFMKRLALPSDAIDKARNLKIISEVKQDGQNFTWSQQYPGGHSITNTFTIGKECDIETIGGKKFKATVQMEGGKVVVNSPNYHHTAEIVDGKLVEVSTVGGVSYERVSKKLA”, the “soluble on expression in E. coli” value is given as “soluble”.

For “PDLIYYRNADGVFSGCNRAMEELTGKKEHQLVGLSPWDVYSKEIAQPIVDTDQKVFSDNQAITYEQWLEYPDGRKHYFELRKVPFYSKD”, the “soluble on expression in E. coli” value is recorded as “not soluble”.

Consider “MGHHHHHHSHMINVDPPTGNYPATGGNSTHNITSESDSRLAFKVKSSNNEHYRVRPVYGFVDAKGKSKLDINRLPGPPKEDKIVIQYAEVPAEETDPMAPFKAGAQQGEIIVKLIAA”, for which the “soluble on expression in E. coli” value is “soluble”.
